Source: patent US20130171059A1 (AbbVie / Abbott, published 2013)

T1: Recombinant Human SOST (human, UniProt Q9BQB4 24-213)
T1 construct: Biacore used the R&D reagent; also called Human Sclerostin
T1 sequence (looked up): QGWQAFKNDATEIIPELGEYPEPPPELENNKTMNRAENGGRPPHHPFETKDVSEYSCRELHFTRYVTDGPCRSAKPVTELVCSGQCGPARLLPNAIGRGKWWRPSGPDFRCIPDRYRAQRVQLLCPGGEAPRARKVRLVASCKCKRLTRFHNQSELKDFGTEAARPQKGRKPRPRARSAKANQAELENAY

B1: DVD1961 (bispecific antibody)
heavy: DIQMTQSPSSLSASVGDRVTITCRASQSISNNLNWYQQKPGKAPKLLIYYTSRFHSGVPSRFSGSGSGTDFTFTISSLQPEDIATYYCQQEHTLPYTFGQGTKLEIKRTVAAPQVQLKESGPGLVAPSQSLSITCTVSGFSLTDYGVNWVRQPPGKGLEWLGMIWGDGSTDYDSTLKSRLSISKDNSKSQIFLKMNSLQTDDTARYYCAREWHHGPVAYWGQGTLVTVSA
light: QVQLQESGPGLVKPSETLSLTCTVSGFSLIGYDLNWIRQPPGKGLEWIGIIWGDGTTDYNSAVKSRVTISKDTSKNQFSLKLSSVTAADTAVYYCARGGYWYATSYYFDYWGQGTLVTVSSASTKGPDIVMTQSHKFMSTTVGDRVSITCKASQAVSSAVAWYQQKPGQSPKLLIYWASTRHTGVPDRFTGSGSVTDFTLTIHNLQAEDLALYYCQQHYSTPFTFGSGTKLEIK
notes: VH/VL crossover DVD-Ig; also called DVD1961H + DVD1961L
B2: DVD1960 (bispecific antibody, not shown: a dimerising Fc or GST)
heavy: DIVMTQSHKFMSTTVGDRVSITCKASQAVSSAVAWYQQKPGQSPKLLIYWASTRHTGVPDRFTGSGSVTDFTLTIHNLQAEDLALYYCQQHYSTPFTFGSGTKLEIKRTVAAPQVQLQESGPGLVKPSETLSLTCTVSGFSLIGYDLNWIRQPPGKGLEWIGIIWGDGTTDYNSAVKSRVTISKDTSKNQFSLKLSSVTAADTAVYYCARGGYWYATSYYFDYWGQGTLVTVSS
light: QVQLKESGPGLVAPSQSLSITCTVSGFSLTDYGVNWVRQPPGKGLEWLGMIWGDGSTDYDSTLKSRLSISKDNSKSQIFLKMNSLQTDDTARYYCAREWHHGPVAYWGQGTLVTVSAASTKGPDIQMTQSPSSLSASVGDRVTITCRASQSISNNLNWYQQKPGKAPKLLIYYTSRFHSGVPSRFSGSGSGTDFTFTISSLQPEDIATYYCQQEHTLPYTFGQGTKLEIKR
B3: AB020 (antibody, V domains shown)
VH: QVQLQESGPGLVKPSETLSLTCTVSGFSLIGYDLNWIRQPPGKGLEWIGIIWGDGTTDYNSAVKSRVTISKDTSKNQFSLKLSSVTAADTAVYYCARGGYWYATSYYFDYWGQGTLVTVSS
VL: DIQMTQSPSSLSASVGDRVTITCRASQSISNNLNWYQQKPGKAPKLLIYYTSRFHSGVPSRFSGSGSGTDFTFTISSLQPEDIATYYCQQEHTLPYTFGQGTKLEIKR
notes: Parent antibody; also called NGF parent antibody
B4: DVD1984 (bispecific antibody)
DVD-H: DIQMTQSPSSLSASVGDRVTITCRASQGIRIDLGWYQQKPGKAPKRLIYAASTLQSGVPSRFSGSGSGTEFIFTISSLQPEDFASYYCLQHKSYPLTFGGGTKVEIKRTVAAPQVQLQESGPGLVKPSETLSLTCTVSGFSLIGYDLNWIRQPPGKGLEWIGIIWGDGTTDYNSAVKSRVTISKDTSKNQFSLKLSSVTAADTAVYYCARGGYWYATSYYFDYWGQGTLVTVSS
DVD-L: QVQLVESGGGVVQPGRSLRLSCAASGFTFSSYDMHWVRQAPGKGLEWVAVIWSDGSIKYYADSVKGRFTISRDNSKNTLYLQMNSLRAEDTAVYYCAREVESAMGGFYYNGMDVWGQGTTVTVSSASTKGPDIQMTQSPSSLSASVGDRVTITCRASQSISNNLNWYQQKPGKAPKLLIYYTSRFHSGVPSRFSGSGSGTDFTFTISSLQPEDIATYYCQQEHTLPYTFGQGTKLEIK
notes: VH/VL crossover DVD-Ig; also called DVD1984H + DVD1984L; copies: 2 + 2
B5: DVD1991 (bispecific antibody)
DVD-H: DVQMIQSPSSLSASLGDIVTMTCQASQGTSINLNWFQQKPGKAPKLLIYGSSNLEDGVPSRFSGSRYGTDFTLTISSLEDEDLATYFCLQHSYLPYTFGGGTKLEIKRTVAAPEVQLVESGGGLIQPGGSLRLSCAASGFTVSRNYMSWVRQAPGKGLEWVSVIYSGDRTYYADSVKGRFTISRDNSKNTLYLQMNSLRAEDTAVYYCARGEGGFDYWGQGTLVTVSS
DVD-L: EVQLQQSGPELVTPGASVKISCKASGYTFTDHYMSWVKQSHGKSLEWIGDINPYSGETTYNQKFKGTATLTVDKSSSIAYMEIRGLTSEDSAVYYCARDDYDASPFAYWGQGTLVTVSAASTKGPEIVMTQSPATLSVSPGERATLSCRASQSVSSNLAWYQQKPGQAPRLLIHGASIRATGLPARFSGSGSGTEFTLTISSLQSEDFAVYYCQQYNYWWTFGQGTKVEIK
notes: VH/VL crossover DVD-Ig; also called DVD1991H + DVD1991L; copies: 2 + 2

What was measured:
Recombinant Human β-NGF [1] = target: T2, Recombinant Human β-NGF (human, UniProt P01138 122-239, limits assumed); experiment: cell-based or functional assay
T2 sequence (P01138 122-239 limits assumed): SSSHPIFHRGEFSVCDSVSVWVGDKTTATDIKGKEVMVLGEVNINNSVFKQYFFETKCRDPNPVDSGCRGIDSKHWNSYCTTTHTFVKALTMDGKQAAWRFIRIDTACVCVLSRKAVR

[2] = target: T3, Recombinant Human TNF-α/TNFSF1A (human, UniProt P01375 77-233); experiment: SPR (Biacore)
T3 construct: Bought reagent for Biacore; also called huTNFα; HuTNFα
T3 sequence (P01375 77-233 limits assumed): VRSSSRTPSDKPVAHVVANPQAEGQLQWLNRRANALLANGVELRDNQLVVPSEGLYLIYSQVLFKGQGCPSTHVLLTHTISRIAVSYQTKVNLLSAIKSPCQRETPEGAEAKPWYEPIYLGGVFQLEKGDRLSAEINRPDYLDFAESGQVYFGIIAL
Protocol: (§1) The BIACORE assay (Biacore, Inc, Piscataway, N.J.) determined the affinity of antibodies or DVD-Ig proteins with kinetic measurements of on-rate and off-rate constants. Binding of antibodies or DVD-Ig proteins to a target antigen (for example, a purified recombinant target antigen) was determined by surface plasmon resonance-based measurements with a Biacore® 1000 or 3000 instrument (Biacore® AB, Uppsala, Sweden) using running HBS-EP (10 mM HEPES [pH 7.4], 150 mM NaCl, 3 mM EDTA, and 0.005% surfactant P20) at 25° C. All chemicals were obtained from Biacore® AB (Uppsala, Sweden) or otherwise from a different source as described in the text. For example, approximately 5000 RU of goat anti-mouse IgG, (Fcγ), fragment specific polyclonal antibody (Pierce Biotechnology Inc, Rockford, Ill.) diluted in 10 mM sodium acetate (pH 4.5) was directly immobilized across a CM5 research grade biosensor chip using a standard amine coupling kit according to manufacturer's instructions and procedures at 25 μg/ml. Unreacted moieties on the biosensor surface were blocked with ethanolamine. Modified carboxymethyl dextran surface in flowcell 2 and 4 was used as a reaction surface. Unmodified carboxymethyl dextran without goat anti-mouse IgG in flow cell 1 and 3 was used as the reference surface. For kinetic analysis, rate equations derived from the 1:1 Langmuir binding model were fitted simultaneously to association and dissociation phases of all eight injections (using global fit analysis) with the use of Biaevaluation 4.0.1 software. Purified antibodies or DVD-Ig proteins were diluted in HEPES-buffered saline for capture across goat anti-mouse IgG specific reaction surfaces. Antibodies or DVD-Ig proteins to be captured as a ligand (25 μg/ml) were injected over reaction matrices at a flow rate of 5 μl/minute. The association and dissociation rate constants, kₒₙ (M⁻¹s⁻¹) and koff (s⁻¹) were determined under a continuous flow rate of 25 μl/minute. Rate constants were derived by making kinetic binding measurements at different antigen concentrations ranging from 10-200 nM. The equilibrium dissociation constant (M) of the reaction between antibodies or DVD-Ig proteins and the target antigen was then calculated from the kinetic rate constants by the following formula: KD=koff/kₒₙ. Binding was recorded as a function of time and kinetic rate constants were calculated.

Recombinant Human β-NGF [3] = target: T2, Recombinant Human β-NGF; experiment: SPR (Biacore)
Protocol: as §1

[4] = target: T3, Recombinant Human TNF-α/TNFSF1A; experiment: cell-based or functional assay
Recombinant Human β-NGF [5] = target: T2, Recombinant Human β-NGF; experiment: SPR (Biacore); antibody captured on anti-IgG Fc chip, antigen 10-200 nM in flow, 25 C, HBS-EP pH 7.4; koff 6.80E-06 is near the assay floor of 10^-6 s^-1
Protocol: The BIACORE assay (Biacore, Inc, Piscataway, N.J.) determined the affinity of antibodies or DVD-Ig proteins with kinetic measurements of on-rate and off-rate constants. Binding of antibodies or DVD-Ig proteins to a target antigen (for example, a purified recombinant target antigen) was determined by surface plasmon resonance-based measurements with a Biacore® 1000 or 3000 instrument (Biacore® AB, Uppsala, Sweden) using running HBS-EP (10 mM HEPES [pH 7.4], 150 mM NaCl, 3 mM EDTA, and 0.005% surfactant P20) at 25° C. All chemicals were obtained from Biacore® AB (Uppsala, Sweden) or otherwise from a different source as described in the text. […] The association and dissociation rate constants, kₒₙ (M⁻¹s⁻¹) and koff (s⁻¹) were determined under a continuous flow rate of 25 μl/minute. […] The equilibrium dissociation constant (M) of the reaction between antibodies or DVD-Ig proteins and the target antigen was then calculated from the kinetic rate constants by the following formula: KD=koff/kₒₙ. Binding was recorded as a function of time and kinetic rate constants were calculated.

Recombinant Human SOST [6] = target: T1, Recombinant Human SOST; experiment: SPR (Biacore)
Protocol: as §1

Recombinant Human SOST [7] = target: T1, Recombinant Human SOST; experiment: cell-based or functional assay

| Binder | N-Terminal VD NGF Neutralization Assay IC50 (TF-1 cell proliferation) (Recombinant Human β-NGF [1]) [nM] | Kd [2] [nM] | koff [2] [s⁻¹] | kon [2] [M⁻¹ s⁻¹] | Kd (Recombinant Human β-NGF [3]) [nM] | koff (Recombinant Human β-NGF [3]) [s⁻¹] | kon (Recombinant Human β-NGF [3]) [M⁻¹ s⁻¹] | C-Terminal VD TNFα Neutralization Assay IC50 (L929 cells) [4] [nM] | C-Terminal VD NGF Neutralization Assay IC50 (TF-1 cell proliferation) (Recombinant Human β-NGF [1]) [nM] | N-Terminal VD TNFa Neutralization Assay IC50 (L929 cells) [4] [nM] | Kd (Recombinant Human β-NGF [5]) [nM] | NGF Neutralization Assay IC50 (TF-1 cell proliferation) (Recombinant Human β-NGF [1]) [nM] | Kd (Recombinant Human SOST [6]) [nM] | koff (Recombinant Human SOST [6]) [s⁻¹] | kon (Recombinant Human SOST [6]) [M⁻¹ s⁻¹] | N-Terminal VD SOST Neutralization Assay IC50 (Wnt-1/luciferase HEK clone #14) (Recombinant Human SOST [7]) [nM] |
| --- | --- | --- | --- | --- | --- | --- | --- | --- | --- | --- | --- | --- | --- | --- | --- | --- |
| B1 | 0.132 | 0.58 | 9.9e-05 | 170000 | < 0.00031 | < 1e-06 | 3.2e+06 | 4.02 |  |  |  |  |  |  |  |  |
| B2 |  |  |  |  |  |  |  |  | 3.12 | 0.086 |  |  |  |  |  |  |
| B3 |  |  |  |  |  | 6.8e-06 | 2.5e+06 |  |  |  | 0.0027 | 0.008 |  |  |  |  |
| B4 |  | 0.015 | 3.7e-05 | 2.5e+06 | 0.096 | 4.3e-05 | 450000 |  | 0.593 | 0.017 |  |  |  |  |  |  |
| B5 |  | 0.66 | 7.1e-05 | 110000 |  |  |  | 0.401 |  |  |  |  | 0.017 | 0.00025 | 1.5e+07 | 36 |
